Results taken from PMC5552922.

Key:
[1] = target: T1, DdrOC (DdrO) (Deinococcus deserti) (UniProt C1CYP4); test: EMSA; settings: EMSA: 10 mM Tris-HCl pH 7.4, 60 mM NaCl, 1 mM DTT, 5% glycerol, 200 ng DNA in 20 ul, 30 min room temperature; 5% PAGE in TAE at 4 C, ethidium bromide
T1 sequence: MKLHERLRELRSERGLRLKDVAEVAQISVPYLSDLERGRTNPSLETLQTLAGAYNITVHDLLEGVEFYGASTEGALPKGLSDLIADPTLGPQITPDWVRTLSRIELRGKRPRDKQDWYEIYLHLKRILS

[2] = target: T2, DdrOC cleaved by IrrE (Deinococcus deserti) (UniProt C1CYP4); test: EMSA; settings: EMSA: 10 mM Tris-HCl pH 7.4, 60 mM NaCl, 1 mM DTT, 5% glycerol, 200 ng DNA in 20 ul, 30 min room temperature; 5% PAGE in TAE at 4 C, ethidium bromide
T2 sequence: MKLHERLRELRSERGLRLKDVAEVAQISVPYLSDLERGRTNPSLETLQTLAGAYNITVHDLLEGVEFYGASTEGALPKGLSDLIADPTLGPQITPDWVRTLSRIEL

In the case of “TATAGGTACCGGTACTCCTTCCTGTCCGACAGCAGACAGCGAGGCAAAGCATGAATAGTCGGTCTTAAGGGGGTAAAAGCCTTCTTGATTACGATCATAGCAGATCGTCTCGTGGTGGGCAAGAAGAACTCCTCTCTATTCTGTATTGACCGTACCGGGAAGCGGTGTTACACTCCAACCAAGGGTGCCCGATTCTGCCTACAGGCAAACGCTCCCCCAGGCGGCCCGCCCGGTCAGCGCACAGTCCCGGTCGCTCAAAGCTGCAGTATC (double strand) [ddrOC-ddrQ intergenic region]”, the binding [1] was “binds” and the binding [2] was “no binding”.
